Source: patent EP0907730B1 (Zenyth Operations Pty Ltd, dated 2009)

T1: IL-4 receptor expressed by parental CTLL cells (UniProt P16382 26-810, limits assumed)
T1 construct: whole, on cells; Endogenous receptor of untransfected CTLL cells; also called IL-4 receptors expressed by CTLL cells; IL-4Rα
T1 sequence (looked up): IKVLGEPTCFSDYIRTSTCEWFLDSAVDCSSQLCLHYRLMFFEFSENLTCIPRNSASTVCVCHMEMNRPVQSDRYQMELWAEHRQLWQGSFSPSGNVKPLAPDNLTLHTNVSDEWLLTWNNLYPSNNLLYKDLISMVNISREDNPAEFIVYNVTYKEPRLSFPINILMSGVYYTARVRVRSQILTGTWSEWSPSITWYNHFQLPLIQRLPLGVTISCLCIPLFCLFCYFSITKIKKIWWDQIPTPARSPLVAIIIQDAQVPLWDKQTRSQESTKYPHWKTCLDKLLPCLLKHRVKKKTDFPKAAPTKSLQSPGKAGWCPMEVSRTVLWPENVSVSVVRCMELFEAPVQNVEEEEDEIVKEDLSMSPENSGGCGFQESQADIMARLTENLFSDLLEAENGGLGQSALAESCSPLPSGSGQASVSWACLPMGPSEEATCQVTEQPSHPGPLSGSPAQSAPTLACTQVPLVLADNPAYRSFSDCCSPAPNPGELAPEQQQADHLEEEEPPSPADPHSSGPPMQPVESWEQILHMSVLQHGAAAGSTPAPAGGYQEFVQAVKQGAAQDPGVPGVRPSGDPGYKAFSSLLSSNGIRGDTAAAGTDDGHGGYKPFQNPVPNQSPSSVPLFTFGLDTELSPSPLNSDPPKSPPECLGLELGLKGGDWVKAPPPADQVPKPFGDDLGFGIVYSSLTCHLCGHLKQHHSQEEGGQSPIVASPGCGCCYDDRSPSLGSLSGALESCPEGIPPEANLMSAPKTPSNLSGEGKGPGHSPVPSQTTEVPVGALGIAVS


Columns and labels:
[1] = target: T1, IL-4 receptor expressed by parental …; experiment: 125I-IL-13 saturation binding on parental CTLL cells
[2] = target: T1, IL-4 receptor expressed by parental …; experiment: 125I-IL-4 saturation binding (Scatchard) on parental CTLL cells

Row | Binder | binding result [1] | Kd [2] [nM]
1 | IL-13 (obtained commercially, R & D Systems) (ligand, UniProt P20109 19-131, looked up, radioiodinated (125I, iodine monochloride method) where used as tracer, also called interleukin-13) APGPVPRSVSLPLTLKELIEELSNITQDQTPLCNGSMVWSVDLAAGGFCVALDSLTNISNCNAIYRTQRILHGLCNRKAPTTVSSLPDTKIEVAHFITKLLSYTKQLFRHGPF | no binding | 
2 | IL-4 (obtained commercially, R & D Systems) (ligand, UniProt P07750 23-140, looked up, radiolabelled with di-iodo-Bolton-Hunter reagent (125I) where used as tracer, also called interleukin-4) HGCDKNHLREIIGILNEVTGEGTPCTEMDVPNVLTATKNTTESELVCRASKVLRIFYLKHGKTPCLKKNSSVLMELQRLFRAFRCLDSSISCTMNESKSTSLKDFLESLKSIMQMDYS |  | ~0.66
